Experimental data taken from patent publication US11858993B2, “Multi-specific antibodies with affinity for human A33 antigen and DOTA metal complex and uses thereof” (Memorial Sloan Kettering Cancer Center, priority 2015, dated 2024).
Entries after “also recorded” stand apart in the source; their conditions may differ. Like-named read-outs stand apart in the source and are kept apart here.

What was measured:
[1] = system: kidney, bone marrow, liver, and spleen; assay: Toxicity: weight, appearance and anatomic pathology after PRIT; assay type: in vivo; conditions: PRIT-treated SW1222 mice, dual-cycle; out to 140 days where stated
Method: For dual-cycle PRIT given at 10 and 17 days post tumor inoculation, there is marked response at all dose levels with complete responses observed in a dose dependent manner. […] Toxicity was determined by monitoring weight and overall appearance at least three times per week, as well as histopathologic assessment of liver, kidney, spleen and bone marrow by MSKCC Lab of Comparative Pathology.
For 3/3 mice, the kidney, bone marrow, and liver were normal.

[2] = system: A33-positive SW1222 xenografts; conditions: for Complete Response / Cures at 40 d post-treatment: Single-cycle; for tumor volume: day 23 post tumor-inoculation, average±SEM
Source text: (§1) All animal experiments were approved by the Institutional Animal Care and Use Committee of Memorial Sloan Kettering Cancer Center and institutional guidelines for the proper and humane use of animals in research were followed. Athymic nu/nu female mice (6-8 weeks old; Harlan Sprague Dawley) were allowed to acclimate in the vivarium for at least one week. […] All reagents were given intravenously (i.v.) via the lateral tail vein. […] In addition, huA33-C825 was trace radiolabeled with I-131 to estimate tumor uptake during PRIT. […] (Lindmo, T. et al., 1990, J. Immunol. Meth. 126(2):183-189). For PRIT with non-specific IgG-C825, an equivalent mg dose of a GD2-targeted bispecific antibody (hu3F8-C825) was used in place of huA33-C825. For ex vivo biodistribution analysis, mice were euthanized by CO2(g) asphyxiation, and tumor and selected organs were harvested, rinsed with water and allowed to air-dry, weighed and radioassayed by gamma scintillation counting (Perkin Elmer Wallac Wizard 3″). Count rates were background and decay corrected, converted to activities using a system calibration factor, normalized to the administered activity, and expressed as percent injected dose per gram (% ID/g). Differences in ^177Lu-activity concentration in tumor and various tissues were analyzed by Student's unpaired t test when appropriate.

BSA-(Y)-DOTA-Bn = assay: Biacore T100 surface plasmon resonance, binding to BSA-(Y)-DOTA-Bn
Method: Binding affinity was measured by Biacore T100.
Biacore T100 Biosensor, CM5 sensor chip, and related reagents were purchased from GE Healthcare. Recombinant human A33 protein was purchased from Novoprotein. A BSA-(Y)-DOTA-Bn conjugate was prepared as described (Cheal et al., supra). A33 and DOTA antigens were immobilized using the Amino Coupling kit (GE Healthcare). Purified bispecific antibodies and control antibodies were analyzed, and data were fit to a bivalent analyte model using the Biacore T100 evaluation software as described (Cheal et al., supra).

[3] = system: A33-positive SW1222 tumor; assay: Biodistribution of ^177Lu-activity 2-120 h p.i. following PRIT; conditions: 2.0 MBq ^177Lu-DOTA-Bn
Method: Briefly, ^177Lu-activity in tumor and various normal tissues determined using a biodistribution assay following PRIT with optimum A33-C825 (0.25 mg/mouse) and dextran-clearing agent doses (25% (w/w), 62.5 μg) and 2.0 MBq (˜10 pmol) of ^177Lu-DOTA-Bn. Groups of SW1222 tumor-bearing mice (n=4 to 5) were given 250 μg of huA33-C825, followed 24 h later with 25% (w/w) (62.5 μg) dextran-clearing agent, and after an additional 4 h, 2.0 MBq (˜10 pmol) of 177Lu-DOTA-Bn. […] was sacrificed at 2, 24, and 120 h p.i. of ^177Lu-DOTA-Bn for biodistribution analysis.
as §1, with “appropriate. […]” for “appropriate.”

[4] = Stability by SE-HPLC and Biacore after freeze and thaw cycles; assay type: physicochemical; conditions: after multiple freeze and thaw cycles
SW1222 tumor = assay: ^177Lu-DOTA-Bn dose titration, tumor uptake and saturation during PRIT; assay type: in vivo, mice
Method: FIGS. 4A-4D show exemplary tumor uptake of ^177Lu-DOTA-Bn at 24 hours post injection as a function of radioactivity in the treatment of mice bearing a human colon cancer xenograft (SW1222); (FIG. 4A) uptake of amounts of ^177Lu-DOTA-Bn in various tissues. (FIG. 4B) Uptake of amounts of ^177Lu-DOTA-Bn in SW1222 tumors; (FIG. 4C) activity of ^177Lu-DOTA-Bn in SW1222 tumors and kidneys 24 hours post injection per amount of injected ^177Lu-DOTA-Bn; (FIG. 4D) pmoles of ^177Lu-DOTA-Bn binding in the tumor 24 hours post injection per amount of injected ^177Lu-DOTA-Bn. Saturation was achieved after approximately 40 MBq of injected activity.
As described herein, the present inventors provide an improved multi-step PRIT method in immunocompromised mice bearing s.c. A33-positive human colorectal tumors (SW1222) using a bispecific antibody termed huA33-C825. Such methodology includes i.v. injection of various doses of huA33-C825 and a dextran-based CA, followed with injection of ^177Lu-DOTA-Bn theranostic (i.e., diagnostic and therapeutic) hapten for simultaneous scintigraphic imaging and radioimmunotherapy. The present invention specifically describes biodistribution studies that provide optimum huA33-C825 and CA doses, followed with a series of additional biodistribution studies to determine the tumor uptake as a function of ^177Lu-DOTA-Bn doses (˜2.0-111.0 MBq) to serve as a practical and dosimetric guide for PRIT studies. Also, as described herein, tumors and kidneys were excised at 24 hours post injection of ^177Lu-DOTA-Bn at three different dose levels (11.1, 55.0, and 111.0 MBq) to examine ex vivo the ^177Lu-activity microdistribution via autoradiography, as well as correlate the ^177Lu-activity with the xenograft and tissue morphology via hematoxylin and eosin staining. Further, the estimated absolute SW1222 tumor uptake of huA33-C825 24 h p.i. of 0.25 mg/mouse based on radioactive tracer studies with ^131I-huA33-C825 was ˜90 pmol/g of tumor.

[5] = single-cycle huA33-C825 PRIT+either 11.1 MBq or 33.3 MBq ^177Lu-DOTA-Bn
[6] = Biacore T100, bivalent analyte model

With “huA33-C825: bispecific antibody: humanized A33 IgG1 with murine C825 anti-DOTA-Bn scFv linked to the light chain C-terminus” the “toxicity (clinical, histologic)” value [1] was “no clinical or histologic evidence of radiation induced toxicities; also recorded: no toxicity was observed; also recorded: no detectable toxicity”, the “Complete Response” value ([2]; + 11.1 MBq) was 0/8 and the “Cures at 40 d post-treatment” value ([2]; + 11.1 MBq) was 0/8. For the same substance, the “Complete Response” value ([2]; + 33.3 MBq) was 0/8, the “Cures at 40 d post-treatment” value ([2]; + 33.3 MBq) was 0/8 and the tumor volume ([2]; 11.1 MBq ^177Lu-DOTA-Bn) was 694±138 mm^3. The tumor volume ([2]; 33.3 MBq ^177Lu-DOTA-Bn) was 495±76 mm^3, the “effective dose range (tumor)” value ([2]; mouse, in vivo) was 1800-2200 cGy and the “complete response (CR)” value [2, 5] was “no CR”. For the same substance, the “slight growth delay of the tumors, up to (days following treatment)” value [2, 5] was ~15 days, the koff (BSA-(Y)-DOTA-Bn; [6]) was 0.00022 s⁻¹ and the kon (BSA-(Y)-DOTA-Bn; [6]) was 19000 M⁻¹ s⁻¹. For the same substance, the Kd (BSA-(Y)-DOTA-Bn; FIG. 2B) was 11.6 nM, the “Tumor-to-tissue ratio, Kidneys” value ([3]; 2 hr p.i. (n = 5)) was 8.1 ± 1.7 and the “Tumor-to-tissue ratio, Kidneys” value ([3]; 24 hr p.i. (n = 4)) was 18.3 ± 13.4. The “Tumor-to-tissue ratio, Kidneys” value ([3]; 120 hr p.i. (n = 5)) was 14.8 ± 4.9, the “stability by SE-HPLC and Biacore” value [4] was “remained stable” and the “estimated maximum occupancy (fraction)” value (SW1222 tumor; 11 pmol ^177Lu-DOTA-Bn/180 pmol) was 0.061. For the same substance, the peak tumor uptake (SW1222 tumor; PRIT+55.5 ^177Lu-DOTA-Bn per cycle) was 3 % ID/g, the “injected activity of ^177Lu-DOTA-Bn after which saturation of tumor binding was achieved” value (SW1222 tumor; SW1222 tumors, 24 hours post injection) was “approximately 40 MBq” and the “^177Lu-DOTA-Bn bound in tumor used for maximum occupancy” value (SW1222 tumor; mouse, in vivo) was 11 pmol. For the same substance, the “maximum ^177Lu-DOTA-Bn binding capacity” value (SW1222 tumor; two ^177Lu-DOTA-Bn per huA33-C825 molecule) was 180 pmol/g tumor.
